Assay results published in the DeepSol protein solubility set.

Assay: soluble on expression in E. coli; label from the status in PepcDB or PDB records

Sequence	soluble on expression in E. coli
MSPLPPPPDIQHEFDKNQDPHETNLALRRLYPQIRERENERHIPRRWDLRQASSYLDISQSGYGVTFKKNVTVAEDKDPAGVVRADAFIQQCIGVYYFEVRILEGHSGCMGIGLSKKDCDLNRMPGWDPGCFGYHGDDGNFFLASGVGQAYGPKFGPGDVIGCGIDTFYHYVFFTKNGKHLGIAHTSPTALKELYPTVGFKTRGEKLVANFGVKPFEFDFEAYRQHLMNKKIHLLENIKMPENFGKQMNRIVSSFLGTTGALATLQKFEETTKPEVPIDHEYYAQRKEITDMILKAARGAEIHEKIEKYFPGLVEDDANVHLLILCLRYIDLANTLHEPPNCFTNSTTGRSPSPTEIRARPPKLLKGSQCKTTKRTREAQRRSANSQVHTPPPVRLTNAKATEELYLKDAKIERFYIDQDTEEEMLHIDGVSMPTKMFVELEKSGQYRKLNYILKMGREIMKVAGEMRGNIAPEARKVVEIATSMVSSPERPAKHPLSFALRRFIANSVVDMICYYVHHKREGKSTKRPRGTSTGEIPGSSSLRMFSELRNLFTGWKGLHIDYSTNDKKMAGIHFVRKMILEEPNFNEKEIIYTDEPMELAHERPDPPPREIIRQQRNEFQF	not soluble
MSPSKLSNDETPPDLDFRFTGIKQRLIKSENVKQVTASWKRLLVEINKEFTEIAKIGPSYVPKCDFIDIKDNKLPQQVSELFKQRGCLMIENVIDVDRIDIWFNELVEFCKTHPETAGYTFPNPTSWYNVFWSKPQTEARFHPNIKAIFKAMSKEFYVEDKENCLIDLDTQLVYGDRIRIREPGKAAALPLHLDSSSIERWEDIMYSEVYKSIFEGDWENWDAFKLDERTYSKENLYKDEDDTGGKSTICSSFRTLQGWLALSNNKSGEGTLRVLPSLKLSMAYIMLRPFFWKDPESGNIDDYEIDMITPKFPGTVPGTGQLFLDKFYPHLHQGIISIPDVKKGSFVFWHCDLPHEVDREHNGNGHSSVLYYGQTPLSITNIQTLLDTRDAFLKNISPADYRSQLNEEEKQKEFQGANIDDLKNDIDSKRSMGLEEFEIPENMSGGQAKIRSIANQALKTGGFNVDKYIHHAAK	soluble
MSQGLPLREDVPVSETWDLVDLFKDDQQYYESIDALVQQANQFHHTYATTLNSIEQINTALAELENILIALDRLSNYAELRLSVDTSNIEAQVLSAKLSTTYGKIVSQLSFVESEILELPEEILQQLEESCPYQHYIKQLIKQKPFQLSASVEQVLATLSPTLNSPYDLYGTTKMLDITFDSFEHDGTTYPVDYATFENDYEDNKDPEFRRKSFKSFSDGIRKYQHTTAATYNMQVQQEKIEADLRGFESVIDYLLHSQEVTRDMFDRQIDMIMRDLAPVMQKYAKLLQRIHGLDNMRFEDLKISVDPDYEPEISIEDSKNYIFGALSVLGDDYTNMLREAYDQRWIDFAQNKGKDTGAFCASPYFTHSYVFISWTGKMAEAFVLAHELGHAGHFTLAQKHQPYLESEASMYFVEAPSTMNEMLMANYLFNTSDNPRFKRWIIGSILSRTYYHNMVTHLLEAAYQREVYHKVDQGESLNAPTLNEIMLNVYKQFFGDAVDMTEGAELTWMRQPHYYMGLYSYTYSAGLTIGTVVSQKIKNEGQPAVDAWLETLKKGGSVSPVELANIAGVDITTEQPLKSTIQYISDLVDEVEKLTDEIEQANN	soluble
MSQGVEFNRLMLDMRAMQADAMSLPKVTAAPELAPGQSTFADMLGQAIGKVHETQQASTQLANAFEIGKSGVDLTDVMIASQKASVSMQAMTQVRNKLVQAYQDIMQMPV	not soluble
MSQKTDAPLESYEVNGATIAVLPEEIDGKICSKIIEKDCVFYVNMKPLQIVDRSCRFFGSSYAGRKAGTYEVTKISHKPPIMVDPSNQIFLFPTLSSTRPQCGWISHVHVKEFKATEFDDTEVTFSNGKTMELPISYNSFENQVYRTAWLRTKFQDRIDHRVPKRQEFMLYPKEERTKMIYDFILRELGERYLEHHHHHH	not soluble
MSQSSDASEKEKPKEKKSQEELEKELDKELKKGGEPKTKKDDQIHKIGETFKAGHTNFTVNKVDRVQKGEYMNVGGAVNEETKTIKDDEERLIIEVTMENIGEDSISYNFIGFDLRDKNDQSVRPVFSIEEKGRILMGGTLVSGKKVTGVLSYVIPKGEQKHYTLVYNPFLADTNSSNTEERVKDDIDYLVKLDLEHHHHHH	soluble
MSQTRTHEQVLAKEPWYHGLLPREDMKQLLTQRGDFLVRFTDPKVGEPRKFVLSVYVGVIEDIRHYVIREHNNKFAVDKKWFSSIADLLNYYHRSKEPVAGGPETVIIRPIGREPWEKQHSDVTLIKKLGEGAFGEVQLGEIRIGNTVKKAAIKLAKLESLTKEQIKEIMHEARLMRKFKHPNVVTFYGVAAGQEPLMVIMELADNGALDSYLKKNIGSLPISKKHTMVLQAGLGLEYLHSLQIIHRDIASRNCLYGNGQVKISDFGLSREGYSYRMNPHKKVPIRWLAPEVPRTGFYTPKTDVFAYGVMCWEVYHDGIEPYPGMKVAEVLPRVQNGYRMPFEANVPPAIVRFITYRICAGAEEERVTMSEAVRELLTLEGFDQAPGSNSYFELPDHIPMENIEQPKKIQVSNILPYMSKPVAPPFEPERQEKTQEMRKSMSNSAEEGVKKNRRPVRTRIRNGNSPSPGFKSQSRSAAENQNKSNLKAVQKKKNNKQSSSISGDAPSTFSVLGVFGKKKNTADRSDLKKLEEF	not soluble
MSQVKRANENRETARFIKKHKKQVTNPIDEKNGTSNCIVRVPIALYVSLAPMYLENPLQGVMKQHLNPLVMKYNNKVGGVVLGYEGLKILDADPLSKEDTSEKLIKITPDTPFGFTWCHVNLYVWQPQVGDVLEGYIFIQSASHIGLLIHDAFNASIKKNNIPVDWTFVHNDGNRSLGHWVDSNGEPIDGKLRFTVRNVHTTGRVVSVDGTLIS	soluble
MSRDTGDNLDRNQSGNLPMANVMDAYLSRRSVMRGSLGAAIAMIAGTGLTGCFDGGGSDHDDPVTEPPVTEPPVTEPEVPKLALGFQSIPGSRTDACVVAAGYSAYVLAPWGTPLNSNGNPWKSDGSNTSTDQANAMGMHHDGMHFFPINGSSEDGLLAINFEYIDTAALHPAGPTTDVNGKRPVEEVRKEINAHGAGVVRLQKINGRWQVVDNDPLNRRFTTASRMEITGPLRGTDHVKTKYSTAGTHCRGTNNNCGNGYTPWGTYLTCEENWPGIFVNKGTRPEDQRRIGVGTSSGQYKWESAAGDASEVDDEFARFDVTVKGASATDDYRNEASTYGYIVEIDPYNSSTLATKRTALGRFRHEGCAPGLPVAGKPLVWYMGDDSNNEYLYKWVSTAVWDPADATPADRLATGAKYLDQGKLYVARFNADGTGVWLLLDVATATTAGSTLGALYGDLPGIILNTRGAGDAVGATPMDRPEWTTVNPLNGDVYLTLTNNSARTPDKVDAANPRGPNRHGHIIRWHDSDDQLSFTWDIFVFGANAAGTADINRSGLTELNQFASPDGMSFDSRGVLWFETDNGETTLTDYTNDQLLAVIPTDLVDASGKQVPVNAQNQVDLRRFFVGPNGCEVTGITFTPDNKTLFVNIQHPDNWPYTDKATDATPAGATVRPRASTVVIQRIDGGEIGTV	not soluble
MSREDELLEKLDECENATAFLQVSNKIINLKLKALLPSVFVQDDLVKEYAVDPLLREDGPLVTTDVVSKLMFAMGKISLQTYADIGLYDQVLEYVVTQPEKIAFTDDVIYDFIKNQAVLSSQQDCFYLESINQLKFSSFESFSQMRYESLIKTVLKLSCEMLIERIEE	not soluble
MSRSRQPPLVTGISPNEGIPWTKVTIRGENLGTGPTDLIGLTICGHNCLLTAEWMSASKIVCRVGQAKNDKGDIIVTTKSGGRGTSTVSFKLLKPEKIG	soluble
MSRTYLELSQDDGSAHKFYEVTVQGQVVTVRYGRIGAAGQTQTSTFPTAQKAEAAAAKKIGEKVRKGYEAAVQGQRAPRAVSRRQVASAPSTARAVAPVLWRFRTGSAAFGIHIDEDRCWVGNQAGDVYTLAHGGEVLARYQLPDGVKCLVADDFWIYAGCDDGRVYDLSSKLPFAAYDIAADVDIFWLDIHEGVLNVADRAGRLTVIDHEDEHQWSRGGRGEHAWMVRADDRAVYHGHTRGVTAHSPDGGVELWHTPTQGAVLFGWQEDDAVYAGTARHTVQRLSKATGGIEATYHCDSPVYSCATSPGGRFVFAGDSASSVYCFDRDGTRLWKLGTGGGSALSMQYRDERLFLVTTDGSLVCVDASEAAVTAAQQGSVPVVRDVKLAATLPTYAPATAATAVTTVTVAPAGSVVVECVQENGRTRIHVVTEGYDRSWNVQFPRAIREPGARYVVDALHAASGGFYRVRGDIRRLRLEHHHHHH	not soluble
MSRVKNVVELLETKGVDALYLTKKTNVNYISGFPDEEAYAVICKDGNFLVTDSRYMELAEKVCKDFEIINWHNFDRSVAKAVKSVCDKVGIKKLGFERTNIVFDKYEELKNLIEKDNGELIPTENIVETLRYVKDKDEIKNTRKACEIADKALEELIPHIKAGVSEIELATKLEYFMKMNGAQNIGFETILISGAKTSLLHGKPSDKIIEKGDFVLIDYGAMYNGYISDTTRTFIVGGASEKQLEIYNLVKEAQNVGVENMKAGVHATIPDAEIRKVVKKYEDYYYQGIGHGVGRDVHEEPFIGNYGDKIIEEGCIITMEPGIYFPGWGGVRIEDTVLITKNGPERLTKFPKDLMILDK	not soluble
MSSAIERKSLDPSEEPVDEVLQIPPSLLTCGGCQQNIGDRYFLKAIDQYWHEDCLSCDLCGCRLGEVGRRLYYKLGRKLCRRDYLRLFGQDGLCASCDKRIRAYEMTMRVKDKVYHLECFKCAACQKHFCVGDRYLLINSDIVCEQDIYEWTKINGMI	not soluble
MSSDDYESIDTPRVASLADMNRLPTQSRHSSYSTDDDEDVTPTPSASNSAPKNTILDPLQAQFLHPNSENSDIDEPRVQLREKKKATRAQDATVSHFLEDQVPNQKFKRRSAERHSMLAGAADFASRRSPFHLSGANGSGRWTDLFSSSRFKRKQRQELNNVPSSSYSNNDYGTYAGTQSIGGFSIASNSTGESFALSGTEDEIREEFRKIMLDKGLPEADKIISNTPLDQMKMMIENSRKQDNQAKGRSPEWVVRVLGEILKTKNIPECKQDIVTVRVQLVGQGVSFLNKFAVEVHDESGRTGADLICCLYSLVLKRLRSSEVGSKYELDLIDFLQEIVRCVRTLINTHVGLVLVLRRNSPVYSLLIQTLCVLNRREQNDHEAAEIRAIRVDVVRTCYTLIFVQHDTLSTPIEMTGQQKMFMELSLIAKAESKRLNEPVSRFRPLISCIDFLESRDPKQGMYVLLMINMMINGVDRNISDDQMWTEETMWQARMRLRSEAAKDKLHKYIEKFTTSETVNSQIRDVAQNMLTEHNADLETLMGKLENVKGEYDTLDGCFELLAANSEATGTETVLLSILQLMTLTNEDMSTKRSYMKLIETAISDILLHRTPIDPQADYKFVFEVPVAEIIDKMQDEEMAKKVRQATSAKQEAVAMQGEYWKTLCDFQKEAEELRKHINDPKIPLPPPTKMNLSAPSTSAGGSSALPPITGGPPPPPGLPPITGGPPPPPPPGGLPPITGGPPPPPPPGGLPPISGGPPPPPPPPGGCPPPPPPPPPGGFKGGPPPPPPPGMFAPMAPVIPDYLPPKKVPKVDGPMRKFPWGAHTINPRDIPRESFWVGTNEEQLTSDRMFDRLRTKFATKPAANSGTLGGVLNSKKKVKTAQVIHDDKLLQKLGILQGSIKMSHSELKLAILEVNEKVLTVGFLEQLRSAMPVEKELIDKLRAVNKAQFEEMPEGEQFVTRLLQIQGLPLRLDLVLFKMRFSEVLNELKPAMSSVMEACEEVRASEGFRTFLKLVLATGNFMGGATKNYSSAYAFDMRMLTRLVDTKDVDNRHTLLHHLIEEMKRIDPRRARFALTDFHHCIESSRVNADEIRKTVQLTENNIKKLENCLKVYKIQGERDLFDEKMRPFHEKAVKEFSTVSSMCGKMKNDWESLVKYYAFNDKKYPMEEFFADIRTFSEQYSNAWKELDAEAEAKRKEAEFETQKRKQLQQSQQERKPLQERQAINRVPRTPAAMIRVSTAADKAGVLDELERATGNADFLQTLMSATNSRTPRSGLPARTRGGGRLGGGLDRQRSRHQNALGQLQDLTGCASEPVLSGQFARSRNVPQNDLQRQNMELPSSVKPTTALDRAKAFGVGLPIGQNELKVRVRRKGQPAVPVTNINGTSQISPTHKENDPTGSSSTSSGPASSNTATSSSSGTVVPSTDDLLARLNDF	not soluble
